Experiments:
Ramos B lymphoma cells = test: scFv apoptosis assay (cross-linked, 24 h, Annexin V/PI); type: cell-based, human
Description: Ramos B lymphoma cells were sequentially incubated with anti-Ramos scFv, anti-His mAb, and anti-mouse polyclonal Ab on ice (with intermittent washing to remove excess unbound antibody), and were incubated in a humidified atmosphere of 5% CO2 at 37° C. for 24 hours. Cells were then harvested and subjected to combined staining with Annexin V-AF488 (AV) and propidium iodide (PI). Cells were scored as viable (AV− PI−, filled circles FIG. 2C), early apoptotic (AV+PI−, open triangles FIG. 2C), or late apoptotic/necrotic (AV+PI+, open diamonds FIG. 2C), based on differential positivity for AV and PI staining (defined by square gates in FIG. 2B). […]
Lipopolysaccharide levels of recombinantly produced scFv fragments were reduced using Detoxigel columns according to manufacturer's instructions (Pierce Biotechnology, Rockford, Ill., USA). Remaining endotoxin levels were quantified by the LAL-amebocyte lysate assay (Cambrex Bioscience, Walkersville, Md., USA). […]
Apoptotic cells were, unless otherwise stated, detected by combined staining with Annexin V Alexa Fluor 488 (AV) and Propidium Iodide (PI) (both from Molecular Probes, Invitrogen) and subsequent flow-cytometric analysis, Cells were defined as viable (AV−/PI−), early apoptotic (AV+/PI−) or late apoptotic/necrotic (AV+/PI+). […]

Raji B lymphoma cells = test: as above; type: cell-based, human

B1: scFv B11: scFv clone isolated by differential biopanning, later converted to B11 IgG1 (protein)
scFv (part 1 of 2): EVQLLESGGGLVQPGGSLRLSCAASGFTFSNAWMSWVRQAPGKGLEWVAFIWYDGSNKYYADSVKGRFTISRDNSKNTLYLQMNSLRAEDTAVYYCARYSGWYFDYWGQGTLVTVSS
scFv (part 2 of 2): QSVLTQPPSASGTPGQRVTISCTGSSSNIGAGYDVHWYQQLPGTAPKLLIYDNNNRPSGVPDRFSGSKSGTSASLAISGLRSEDEADYYCQSYDSSLSAWLFGGGTKLTVLG
modifications: left off: small tags and cut ends
notes: scFv clone isolated by differential biopanning, later converted to B11 IgG1
For B1, which “apoptosis induction by scFv” value (Ramos B lymphoma cells) is on record?
The value was “induced significant apoptosis”.

What about the “apoptosis induction by scFv” value (Raji B lymphoma cells) of the same molecule?
The value was “induced significant apoptosis”.

— US9803013B2, “Biological materials and uses thereof” (BioInvent International AB, priority 2005, dated 2017)
